Assay results as given in the DeepSol protein solubility set.

Assay: soluble on expression in E. coli; label from the status in PepcDB or PDB records
In the case of “DYKYVLKGHEDIRQDSLVMQLFGLVNTLLKNDSECFKRHLDIQQYPAIPLSPKSGLLGWVPNSDTFHVLIREHRDAKKIPLNIEHWVMLQMAPDYENLTLLQKIEVFTYALDNTKGQDLYKILWLKSRSSETWLERRTTYTRSLAVMSMTGYILGLGDRHPSNLMLDRITGKVIHIDFGDCFEAAILREKYPEKVPFRLTRMLTYAMEVSGIEGSFRITCENVMRVLRDNKESLMAILEAFALDPLIHWGFD”, the “soluble on expression in E. coli” value is reported as “not soluble”.
For “EAAFWGASNELLHDPTMIKEGSSWYALGTGLTEERGLRVLKSSDAKNWTVQKSIFTTPLSWWSNYVPNYGQNQWAPDIQYYNGKYWLYYSVSSFGSNTSAIGLASSTSISSGGWKDEGLVIRSTSSNNYNAIDPELTFDKDGNPWLAFGSFWSGIKLTKLDKSTMKPTGSLYSIAARPNNGGALEAPTLTYQNGYYYLMVSFDKCCDGVNSTYKIAYGRSKSITGPYLDKSGKSMLEGGGTILDSGNDQWKGPGGQDIVNGNILVRHAYDANDNGIPKLLINDLNWSSGWPSY”, the “soluble on expression in E. coli” value was “soluble”.
For “EAIGASVIPMSAGNTEKQIMIMQDYKTTALVCTPSYAITIADRMEKMGVDPKSLSLKVGLFGAEPWSEAMRKEIENRLFVSATDNYGLSEIIGPGVAGDCEYKCGMHIS”, the “soluble on expression in E. coli” value was “not soluble”.
For “EDPLAKKQTVRLIKDLQRAINKVLCTRLRLSNFFTIDHFIQKLHTARKILVLTGAGVSTSLGIPDFRSSEGFYSKIKHLGLDDPQDVFNYNIFMHDPSVFYNIANMVLPPEKIYSPLHSFIKMLQMKGKLLRNYTQNIDNLESYAGISTDKLVQCHGSFATATCVTCHWNLPGERIFNKIRNLELPLCPYCYKKRREYFPEGYNNKVGVAASQGSMSERPPYILNSYGVLKPDITFFGEALPNKFHKSIREDILECDLLICIGTSLKVAPVSEIVNMVPSHVPQVLINRDPVKHAEFDLSLLGYCDDIAAMVAQKCGWTIPHKKWNDLKNKNFKCQEKDKGVYVVTSDEHPKTL”, the “soluble on expression in E. coli” value was “soluble”.
For “EGCYVATLEKCATCSQPILDRILRAMGKAYHPGCFTCVVCHRGLDGIPFTVDATSQIHCIEDFHRKFA”, the “soluble on expression in E. coli” value was “soluble”.
For “EGFKKLELNYMKERSYEEAKEYLDRALKNSVLKRVRGLDKVGIICSGGVDSSLIAKLASLYCEVILYAVGTENSEDLIYAERLAKDLNLKLRKKIISEEEYEEYVFKVAKAIDEVDLMKIGVGIPIYVASEMANEDGLKVVLSGQGADELFGGYARHERIYRERGEEELKKELLKDVYNLYKVNLERDDHCTMANGVELRVPFLDEEVVEIALSIPIEYKMSELSNRPYAESNISLKSEPINGLKNTNLNIKCVRSVRKKILRDVASQYLPDYIAYRPKKAAQYGSG”, the “soluble on expression in E. coli” value was “soluble”.
For “EHLLEELESELVRRVYSTHFPPQVSIDEGQAQLACAEFHAVTPEEGQDLLVLSGDHQAQNNQGHYGLTDTFLDIADEFGIQRVFALGGVPTGELIEEYDVLGATTTEDFKETLEESGVAFREDEPAGGIVGVSGLLLGLSKRRDVPASCLMGETSGYLVDPKSAQAVLEILQDVIGFEVDYSSLEDRADEMEEVVRKIQEMEQQNSPSPADEDLRYIG”, the “soluble on expression in E. coli” value was “not soluble”.
In the case of “EIEMTQSPSSLSASVGDRVTISCRASQRINTYLNWYQHKPGKAPKLLIYAASSLQSGVPSRFSGSGYGTDFTLTISSLQPEDFASYYCQESLSASYTFGQGTKVEIKRTVAAPSVFIFPPSDEQLKSGTASVVCLLNNFYPREAKVQWKVDNALQSGNSQESVTEQDSKDSTYSLSSTLTLSKADYEKHKVYACEVTHQGLSSPVTKSFNRGEC”, the “soluble on expression in E. coli” value is reported as “soluble”.
For “EITPLFFQKELATPVDNLKPYTALQMEGRDIYIREGCSNCHSQMIRPFRAETERYGHYSVAGESVWEHPFLWGSKRTGPDLARVGGRYSDDWHIAHLTDPRSVVPESNMPAYSWLNTDTLDGELTGKKLATFNFLTRNRSHKDENGNAIPLYTQAEIDGAKDAVKGKTEMSALIAYLQSLGH”, the “soluble on expression in E. coli” value was “not soluble”.
In the case of “EKEKDTIAAEHKQEASVLLNLHRNKINYLIGETMARMTSLSIAIDRPVDIKKMQSILEKTFDSEPRFSGLYFLNAKGDVTASTTELKTKVNLADRSFFIKAKETKKTVISDSYSSRITGQPIFTICVPVLDSKRNVTDYLVAAIQIDYLKNLINLLSPDVYIEVVNQDGKMIFASGQASHAEDQKPVSGYLDDISWNMKVYPNPVTIEELSKSL”, the “soluble on expression in E. coli” value is reported as “soluble”.
For “ELEPGAFSELYQRYRHCDAPICLYEQGRDSFEDEGRWRLILCATCGSHGTHRDCSSLRPNSKKWECNECLPA”, the “soluble on expression in E. coli” value was “soluble”.
With “ELNHRVKNTLATVQAIASLTVNSSTSLDSFRKSFDARLFALSQARAEWMSTELADLLAQLQDVNGGQHRITFTGDP” the “soluble on expression in E. coli” value was “not soluble”.
For ELYSALANKCCHVGCTKRSLARFC, the “soluble on expression in E. coli” value was “soluble”.
For EQHADPICNKPCKTHDDCSGAWFCQACWNSARTCGPYVG, the “soluble on expression in E. coli” value was “soluble”.
In the case of “EQLAGIDNLRDLDPTGALATKLEAIAPTVSTYDSYAGRLISEYGLLLPVEPSSRLISQTELFQIAHSIVSAHTGALNTSNSPNTVTSTLISLVSEMDNHMVSPTDIEEESAAFLAMIEDVEATSKRAPSKEVYKWRDTQVLRNELLPLVQQLKTHLADNHLMTFGEQMSLAARLAAENPQVGASQRNRYQIIMLDEYQDTGHAQRVLLKSLFAGTAVTAVGDPMQSIYGWRGATAANLERFLTDFGSNGSPATKKELTVSFRNPPEVLDLANRVSRELLGVPEDPRRPVQPLEPGPAALNGIVRLGFFPSMDEERSYVADHLAQAYEQHDGDHPFTAAVLVRKRKHSAAIALELQQRGVPVE”, the “soluble on expression in E. coli” value is reported as “not soluble”.
With “ETELAFLYERDIYRLLAECDNSRNPDLGLIVRICLATGARWSEAETLTQSQVMPYKITFTNTKSKKNRTVPISDELFDMLPKKRGRLFNDAYESFENAVLRAEIELPKGQLTHVLRHTFASHFMMNGGNILVLKEILGHSTIEMTMRYAHFAPSHLESAVKFNPLSNPAQ” the “soluble on expression in E. coli” value was “soluble”.
With “EVASYCDRVVAAVSSWMSTVKSTTEVSWNKLSFCDVLLKIITFGIYSPHETLAEKYSEKKLMDSFSPSLSQDKMDGEFAHANIDGISIRLCLNKGICSVFYLDGDKIQSTQLSSKEYNNLLSSLPPKQFNLGKVHTITAPVSGNFKTHKPAPEVIETAINCCTSIIPNDDYFPVKDTDFNSVWHDIYRDIRASDSNSTKIYFNNIEIPLKLIADLINELGINEFIDSKKELQMLSYNQLNKIINSNFPQQDLCFQTEKLLFTSLFQDPAFISALTSAFWQSLHITSSSVEHIYAQIMSENIENRLNFMPEQRVINNCGHIIKINAVVPKNDTAISASGGRAYEVSSSILPSHITCNGVGINKIETSYLVHAGTLPSSEGLRNAIPPESRQVSFAIISPDV” the “soluble on expression in E. coli” value was “soluble”.
With “EVIAAYIEGIKKAAENGLNVSQIHSVASFFVSRLDTEVDKRLEQIGSDEALSLRGKAGVANAQRAYAVFLEAFQAADLPVGAHVQRPLWASTGVKNPDYSPTFYVSELAGPDTVNTMPESTIDAVLAADDIHGDTLSSSSDSANEIFTRISQTGIDFEDVFAVLEQEGVDKFVAAWSDLLDSMESRLK” the “soluble on expression in E. coli” value was “not soluble”.
For “EVQLLESGGGLVQPGGSLRLSCAASGFTFSRYVMWWVRQAPGKGLEWVSYIWPSGGNTYYADSVKGRFTISRDNSKNTLYLQMNSLRAEDTAVYYCASSYDFWSNAFDIWGQGTMVTVSSASTKGPSVFPLAPCSRSTSESTAALGCLVKDYFPEPVTVSWNSGALTSGVHTFPAVLQSSGLYSLSSVVTVPSSSLGTKTYTCNVDHKPSNTKVDKRVES”, the “soluble on expression in E. coli” value was “soluble”.
With “EVVVTGMQKMDKRLFTGATQQLTADNVKLDGLPDISRGLEGRAAGVSVQNVSGTFGTAPKIRVRGATSIYGSSKPLWVVDGVIMEDAIDVGPDDLSSGDAETLISSAIAGLNSDDIESFQILKDGSATSIYGARAMAGVIVVTTKKGK” the “soluble on expression in E. coli” value was “not soluble”.
For “EVVVVGYGTMKRSDLTGSVASIAAKDVEGFKTSSVAGALGGQIAGVQITSTDGTPGAGFSINIRGVGTLTGDSSPLYIVDGFEVDDIDYLSNSDIESIEVLKDASSSAIYGARAANGVVLITTKSGK”, the “soluble on expression in E. coli” value was “not soluble”.
For “FDNLTDRLSRTLRNISGRGRLTEDNVKDTLREVRMALLEADVALPVVREFINRVKEKAVGHEVNKSLTPGQEFVKIVRNELVAAMGEENQTLNLAAQPPAVVLMAGLQGAGKTTSVGKLGKFLREKHKKKVLVVSADVYRPAAIKQLETLAEQVGVDFFPSDVGQKPVDIVNAALKEAKLKFYDVLLVDTAGRLHVDEAMMDEIKQVHASINPVETLFVVDAMTGQDAANTAKAFNEALPLTGVVLTKVDGDARGGAALSIRHITGKPIKFLGVGEKTEALEPFHPDRIASRILGMGDVLSLIEDIESKVDRAQAEKLASKLKKGDGFDLNDFLEQLRQMKNMGGMASLMGKLPGMGQIPDNVKSQMDDKVLVRMEAIINSMTMKERAKPEIIKGSRKRRIAAGCGMQVQDVNRLLKQFDDMQRMMKKMK”, the “soluble on expression in E. coli” value was “soluble”.
In the case of “FFAAITAAERRCWIASPYFVPDLDILAALKHAALRGVDVRLLVPDEADHTIPWLAAFAYFDEVREAGVRVMRYTDGFLHQKVFVVDDTIAAVGTTNLDNRSFRLNFEAMALFFDATVAGQVTAMLEHDFASSTELTRSLAAQPVFIRYGAPLARLFAPIL”, the “soluble on expression in E. coli” value is reported as “not soluble”.
In the case of “FGDFNYNTTFTATTNKNKIIQLARDVLNPVTNTLIDLTDIQVGRFRLREGGEIGTVYANEWLKRDGDNYIDYQPGQALTTETTSPYKLGSVNPKWNLGWQHGFSYKGFNLNLLFTARIGGIAISKTQAMLDRYGVSEASADARDAGGVSLGYFKVDPKTYYDAVSNLDAYYTYSATNVRLQEARLTYTFPNKWFKGTVNNLSLSVYGTNLWMIYNKAPYDPELTASTGTFGQGYDYFMLPSQSTYGLSLKFGF”, the “soluble on expression in E. coli” value is reported as “not soluble”.
In the case of “FKAHCRRSVEGDTMLSLKAVSPTRLLKNKFYQDVFAAEQRGASVEELRELLGRGRAKQGIFEGDLHEGELEIGQAVSQISHAETVAEIMVDLVDGYKRSLAGMPTEI”, the “soluble on expression in E. coli” value is reported as “not soluble”.
For “FLLPPSTACCTQLYRKPLSDKLLRKVIQVELQEADGDCHLQAFVLHLAQRSICIHPQNPSLSQWFEHQERKLHGTLPKLNFGMLRKMG”, the “soluble on expression in E. coli” value was “soluble”.
With “FLQNAVILGATENGLRLAEYLLEHQDIRSGVIGFIDDRIGRMPKTVANLPLLGNTSDLERLIREEKVTQVLVALPWTAENRMDYIIRELRRLPVNVLLVPDMIAFRHT” the “soluble on expression in E. coli” value was “not soluble”.
With “FSKTQRWAEPGEPICVVCGRYGEYICDKTDEDVCSLECKAKHLLQVKEKEEKS” the “soluble on expression in E. coli” value was “soluble”.
For “FSSALTSKDAARLADETDNIAEALRAAETEGVALQDMLQAYLPANGMVRVVNGDQKAVMTITKEKAYKDFPLSFHSGETADVRKPDGKLFAEAAVPVIWTDGQVVSLQLVERLENTEESLFLLK”, the “soluble on expression in E. coli” value was “not soluble”.
In the case of “FSVEELSEILESHSIRLELQPILELETGRVGAAEGLLRINLDGTDVPTGQFVQSVEQAGLAPKLDIAVMREGINHIERLRAVCPTFSLALNLSGYSLSSAKIREELRAEFRARDLPRGSIRFEITETAPIEDIDAAKEFVQMLKDFGFHIVIDDFGAGHEPYQYLKKFDFSVLKIAGEFIEGMVTNRVDRSIVESIAQLAKDEEMETVAEFVSSKEILEAVREIGVTYAQGFHIGKSKPIDEFIATYLETNQTATWG”, the “soluble on expression in E. coli” value is reported as “not soluble”.
With “FYDPLVFPSDEFDASISQVNEKINQSLAFIRKSDELLHNVNAG” the “soluble on expression in E. coli” value was “soluble”.
